In patent US20230331823A1:

Experiments:
[1] = biological target: SARS-CoV-2 stabilized Spike trimer (S-2P) (SARS-CoV-2) (UniProt P0DTC2)
[2] = biological target: SARS-CoV-2 RBD (pCoV08, RBD-His6) (SARS-CoV-2 (Wuhan-Hu-1)) (UniProt P0DTC2); assay: BLI, RBD on probe, antibody, then hACE2 (blocked ligand)

CR3022 (antibody) gave an EC50 (read off the curve) [1] of 30 mg/L and an EC50 (read off the curve) [2] of 10 mg/L.
